Assay results published in patent US7960548B2, “Keratinocyte growth factor receptor—tyrosine specific inhibitors for the prevention of cancer metastatis” (The Ohio State University Research Foundation, priority 2005, dated 2011).

Key:
MCF-7 cells [1] = assay: KGF-mediated motility of MCF-7 cells with TK signaling pathway inhibitors; type: cell-based, human
Description: (§1) In order to define the signaling pathway involved in the KGF-mediated breast cancer cell motility, we have examined the influence of inhibitors of intermediates in the TK signaling pathway (29, 30, 31). […] In addition, inhibition of Grb2, using a specific Grb2 antisense oligonucleotide, abolished KGF-mediated motility of MCF-7 cells (30, 31). […] Thus, we have observed that the KGFR-Erk1,2 pathway mediates KGF-induced cell motility in ER-positive breast cancer cells. Accordingly, inhibitors targeting the KGF/KGFR/Grb2/Erk1,2 pathway have the potential to be selective therapeutic or chemopreventive modalities against breast cancer metastasis. […] Thus we next considered the design of selective KGFR TK inhibitors to be examined in this study.

MCF-7 human cancer cells = assay: Motility effect of KGF by time-lapse videomicroscopy and culture wounding; type: cell-based
Description: Based on this background information, we examined the motility effect of KGF on human breast cancer cells using time-lapse videomicroscopy and culture wounding (22, 23). […] The KGF motility effect is characterized by a rapid increase in ruffling of the plasma membrane and cell scattering. […] Scanning electron microscopy of KGF-treated MCF-7 cells confirmed dramatic changes in cell morphology consistent with active cell motility (FIG. 1). […] Changes in cell morphology, associated with membrane ruffling and motility are believed to be associated with cytoskeletal reorganization and necessary for adhesion foci, cell surface ligand-receptor binding and regulation of gene transduction (24, 25). Accordingly, we have previously observed a significant alteration in the distribution of f-actin in the cytoplasm of KGF stimulated MCF-7 cells (22).

MCF-7, T-47D, ZR-75-1 = assay: KGF motility response of ER-positive human breast cancer cell lines; type: cell-based; conditions: KGF 10-50 ng/ml
Procedure: In our previous experiments, all of the estrogen receptor (ER)-positive human breast cancer cell lines examined (MCF-7, T-47D, ZR-75-1) responded to KGF treatment (10-50 ng/ml); however, the responsiveness differed substantially among the cell lines tested.

[2] = system: MDA-MB-231, SK-BR-3, BT-20; assay: KGF motility response of ER-negative cell lines; type: cell-based, human; conditions: KGF 10-50 ng/ml
MCF-7 cells [3] = assay: MCF-7 nude mouse xenograft model, growth and metastasis (β-gal reporter); type: in vivo, female nu/nu balb/C mice
Procedure: In these experiments 5×10^6 viable MCF-7 cells, transfected with a β-gal reporter plasmid, were embedded into 0.2 ml Matrigel and implanted into female nude mice. Four animal/group were treated with either KGF (2.5 μg/kg) or control vehicle every other day. After 21 days of treatment the tumor, lung and liver tissue were removed and assayed for b-gal activity using a CRPG substrate for β-gal.
In order to determine the influence of KGF on tumor growth and development in vivo, we recently examined the effect of KGF treatment on the growth and metastasis of MCF-7 cells in a nude mouse xenograft model (27, 28). In these experiments 5×10^6 viable MCF-7 cells, transfected with a β-gal reporter plasmid, were embedded into 0.2 ml Matrigel and implanted into female nu/nu balb/C mice at 6 weeks of age. At 40 days after tumor cell implantation, when approximately 0.5 cm tumor masses were observed, animal were treated with either human recombinant KGF or control vehicle by intra-tumoral injections every other day for a period of 21 days. […] In tumor and tissue samples, collected at the end of the treatment period, the β-gal activity was used as a reported to quantify MCF-7 cells as previously described (27). […] However, in the connective tissue surrounding the tumors and in the lung and liver tissue samples, the β-gal activity was much greater in the KGF treated than in the control samples (FIG. 2) (28). The results of the present study indicate that KGF enhances the migration of breast cancer cells away from the tumor mass, resulting in measurable lung and liver metastasis within the 21 day treatment period.

phospho-Erk1,2 = assay: Western blot of phospho-Erk1,2 in MCF-7 cells; type: cell-based, human; conditions: 50 ng/ml KGF and/or inhibitor for 3 days
Procedure: The cells were treated with 50 ng/ml KGF and/or signal transduction inhibitor for 3 days. Equal amounts of protein (10 μg) were loaded for SDS-PAGE analysis.
as §1

Molecule | KGF-mediated motility of MCF-7 cells (MCF-7 cells [1]) | duration of change in morphology of MCF-7 cells (MCF-7 human cancer cells) | motility effect on MCF-7 cells (MCF-7 human cancer cells) | perimeter index (PI) (MCF-7 human cancer cells) | time of maximal KGF motility effect (MCF-7 human cancer cells) | response to KGF treatment, ER-positive cell lines (MCF-7, T-47D, ZR-75-1) | enhancement in motility, ER-negative cell lines [2] | β-gal activity in connective tissue surrounding the tumors, lung and liver (MCF-7 cells [3]; end of 21 day treatment) | β-gal activity in tumor tissue (MCF-7 cells [3]; end of 21 day treatment) | tumor volume (MCF-7 cells [3]; intra-tumoral injections every other day for 21 days, KGF 2.5 μg/kg) | phospho-Erk1,2 protein level (phospho-Erk1,2)
COc1cccc(-c2cc(=O)c3ccccc3o2)c1N [PD98059] | completely abolished |  |  |  |  |  |  |  |  |  | 
O=c1c(-c2ccc(O)cc2)coc2cc(O)cc(O)c12 [genistein] | completely abolished |  |  |  |  |  |  |  |  |  | 
KGF: recombinant human Keratinocyte Growth Factor, member of the fibroblast growth factor family (FGF-7) (protein, UniProt P21781 32-194, looked up) Fibroblast growth factor 7: CNDMTPEQMATNVNCSSPERHTRSYDYMEGGDIRVRRLFCRTQWYLRIDKRGKVKGTQEMKNNYNIMEIRTVAVGIVAIKGVESEFYLAMNKEGKLYAKKECNEDCNFKELILENHYNTYASAKWTHNGGEMFVALNQKGIPVRGKKTKKEQKTAHFLPMAIT |  | at least 48 hours | cell scattering motility effect | dose-related increase | one | responded | little or no enhancement | much greater | significantly less than in the controls | the same as in the control tumors | increase
